The source of these data is patent US20240327519A1 (Genentech, published 2024).

In general, Kd refers to the free concentration of one partner at which half of the binding sites on the other are occupied at equilibrium, for simple one-to-one binding. Low readings indicate higher affinity, high ones lower affinity.

The target in experiment [1] is T1, LAG3 (lymphocyte activation gene-3), as parameterised in the receptor occupancy model (UniProt P18627 23-450, limits assumed).
T1 construct: also called CD223
T1 sequence (looked up): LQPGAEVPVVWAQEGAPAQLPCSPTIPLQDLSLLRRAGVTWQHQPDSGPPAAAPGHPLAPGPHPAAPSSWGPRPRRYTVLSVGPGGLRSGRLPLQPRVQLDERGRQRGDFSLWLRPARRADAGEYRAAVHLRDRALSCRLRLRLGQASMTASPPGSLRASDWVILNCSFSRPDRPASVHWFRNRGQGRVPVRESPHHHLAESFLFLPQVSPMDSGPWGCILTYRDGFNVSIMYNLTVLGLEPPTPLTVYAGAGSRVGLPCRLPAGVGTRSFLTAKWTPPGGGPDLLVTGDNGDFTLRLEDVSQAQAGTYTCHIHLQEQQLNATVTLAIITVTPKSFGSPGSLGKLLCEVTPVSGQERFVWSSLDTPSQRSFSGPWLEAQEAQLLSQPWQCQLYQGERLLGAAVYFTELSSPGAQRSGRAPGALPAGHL
Briefly: assay not stated; parameter of the mPBPK tumor receptor occupancy model; input parameter of the PK/receptor occupancy model; assay not stated.

Experiment [2] deals with PD-1 (programmed cell death protein 1), as parameterised in the receptor occupancy model (UniProt Q15116 25-167, limits assumed). Kind of experiment: assay not stated; parameter of the mPBPK tumor receptor occupancy model.
Sequence of PD-1 (programmed cell death protein 1), as parameterised in the receptor occupancy model (Q15116 25-167 limits assumed): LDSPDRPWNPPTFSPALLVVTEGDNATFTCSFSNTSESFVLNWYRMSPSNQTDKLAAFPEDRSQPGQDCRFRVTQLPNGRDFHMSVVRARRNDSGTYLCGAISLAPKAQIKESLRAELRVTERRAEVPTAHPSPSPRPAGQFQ

B1: RO7247669 (PD1-LAG3), anti-PD-1/LAG3 bispecific antibody (bispecific antibody, human IgG1, kappa, L234A L235A)
heavy 1: not shown
light 1: EVQLLESGGGLVQPGGSLRLSCAASGFSFSSYTMSWVRQAPGKGLEWVATISGGGRDIYYPDSVKGRFTISRDNSKNTLYLQMNSLRAEDTAVYYCVLLTGRVYFALDSWGQGTLVTVSSASVAAPSVFIFPPSDEQLKSGTASVVCLLNNFYPREAKVQWKVDNALQSGNSQESVTEQDSKDSTYSLSSTLTLSKADYEKHKVYACEVTHQGLSSPVTKSFNRGEC
heavy 2: EVQLLESGGGLVQPGGSLRLSCAASGFIFDDYTMNWVRQAPGKGLEWVAVISWDGGGTYYTDSVKGRFTISRDDFKNTLYLQMNSLRAEDTAVYYCAKGLTDTTLYGSDYWGQGTLVTVSSASTKGPSVFPLAPSSKSTSGGTAALGCLVEDYFPEPVTVSWNSGALTSGVHTFPAVLQSSGLYSLSSVVTVPSSSLGTQTYICNVNHKPSNTKVDEKVEPKSCDKTHTCPPCPAPEAAGGPSVFLFPPKPKDTLMISRTPEVTCVVVDVSHEDPEVKFNWYVDGVEVHNAKTKPREEQYNSTYRVVSVLTVLHQDWLNGKEYKCKVSNKALGAPIEKTISKAKGQPREPQVCTLPPSRDELTKNQVSLSCAVKGFYPSDIAVEWESNGQPENNYKTTPPVLDSDGSFFLVSKLTVDKSRWQQGNVFSCSVMHEALHNHYTQKSLSLSPGK
light 2: not shown
notes: also called PD-1 BsAb; bsAb RO7247669
For B1, the values for the Kd in experiment [1] and in experiment [2] were 0.78 nM and 0.25 nM, respectively.
